This is an account of results in patent US20240294622A1 (SUZHOU TRANSCENTA THERAPEUTICS, published 2024).

Test [1] deals with T1, HGREM1-His (ACRO) (human, UniProt O60565 25-184).
T1 construct: Lys25-Asp184 of NP_037504 with C-terminal polyhistidine tag (ACRO GR1-H52H3); they are put here; also called hGREM1 (ACRO); human gremlin (ACRO)
T1 sequence: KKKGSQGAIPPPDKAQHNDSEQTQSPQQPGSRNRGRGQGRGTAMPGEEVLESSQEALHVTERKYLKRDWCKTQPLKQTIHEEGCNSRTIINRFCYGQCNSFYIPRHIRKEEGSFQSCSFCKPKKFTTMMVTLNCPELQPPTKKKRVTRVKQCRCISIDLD
Briefly: competition ELISA, Gremlin-his 0.25 ug/ml binding to coated FGFR1-Fc; partial blocking. How it is done: (§1) Next, 0.25 μg/ml of gremlin was selected to test the blocking activity. The ability of antibodies to block Gremlin binding to human FGFR1-Fc was examined via ELISA. Plates were coated with recombinant FGFR1-Fc (2 μg/ml) overnight and then serial dilutions of antibodies were incubated with 0.25 μg/ml of human Gremlin-his modified for 1 h at RT before this complex was added to coated plates and allowed to incubate for an additional hour at RT. The plates were then washed and added with anti-his HRP (GenScript). Plates were then developed with a TMB solution and stopped by adding stop solution. The plates were read on a plate reader at 450 nm. […] Humanized anti-GREM1 antibodies provided herein (e.g., Hu14E3, Hu22F1) are expected to show the similar technical effect as their chimeric counterparts in blocking the binding of hGREM1 to FGFR1.
A general note: In an ELISA, binding on a coated surface is turned into a signal by an enzyme label.

In test [2] the target is T1, HGREM1-His (ACRO). Briefly: blocking ELISA: coated BMP4, chimeric antibody pre-incubated with gremlin, lower panel; blocked ligand BMP4. The protocol: (§2) In addition, the ability of serial dilutions of antibodies provided herein to block Gremlin binding to human BMP2/4/7 was also examined via ELISA. Plates were coated with recombinant human BMP2/4/7 (0.5 μg/ml) overnight and then serial dilutions of antibodies were incubated with 1 μg/ml of human Gremlin-his modified for 1 h at RT before this complex was added to coated plates and allowed to incubate for an additional hour at RT. The plates were then washed and added with anti-his HRP (GenScript). Plates were then developed with a TMB solution and stopped by adding stop solution. The plates were read on a plate reader at 450 nm. […] The chimeric anti-gremlin 1 antibodies (69H5-chi) and chimeric anti-gremlin 1 antibodies (22F1-chi) also can inhibit the binding of gremlin to BMP2 and BMP4 (see, FIG. 3E and FIG. 3F). The chimeric anti-gremlin 1 antibodies (56C11-chi) can inhibit the binding of gremlin to BMP2 (see, FIG. 3E).

The target in test [3] is T1, HGREM1-His (ACRO). Briefly: ELISA, coated hGREM1 (ACRO). How it is done:
(§3) Clear polystyrene plates (BEAVER) were coated with 100 μl/well of a […] hGREM1 (ACRO) and mouse gremlin (R&D) in high pH coating buffer overnight at 4° C. Then the plates were washed once on an automatic plate washer using PBS+0.1% Tween 20 (Sigma). 100 μl of block solution consisting of PBS+1% BSA+1% normal goat serum+0.5% Tween 20 (Sigma) was added to each well and incubated at room temperature for 2 hours. Then 100 μl of antibodies in antibody dilution buffer containing PBS+1% BSA+1% normal goat serum+0.01% Tween 20 starting from 2 μg/ml and then serial dilutions were added to each well of the plate and incubated for 1 hours at room temperature. Afterward the plates were washed three times with 200 μl of PBS+0.1% Tween20 followed by adding 100 μl/well 1:10000 Goat anti mouse IgG-HRP (abcam), and incubate for 1 hour at room temperature. They were then washed 3× with PBS+0.1% Tween20. Finally, 100 µl/well of TMB (Pierce) was added to each well and after several minutes add 50 μl of stop solution to each well. The plates were read on a Multiscan FC microplate reader (Thermo Scientific) at […].

The target of test [4] is T2, Mouse Gremlin-His (R&D) (mouse, UniProt O70326 25-184).
T2 construct: Lys25-Asp184 with 10xHis, R&D 956-GR; also called mouse gremlin (R&D); mGREM1
T2 sequence: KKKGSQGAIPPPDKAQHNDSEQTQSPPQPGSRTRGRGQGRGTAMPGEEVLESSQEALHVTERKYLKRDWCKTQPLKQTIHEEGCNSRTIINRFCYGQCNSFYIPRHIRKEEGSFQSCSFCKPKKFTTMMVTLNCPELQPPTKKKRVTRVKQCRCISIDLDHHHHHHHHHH
Briefly: ELISA on coated Mouse Gremlin-his, anti-mouse IgG-HRP. The protocol: as §3

Test [5] deals with T2, Mouse Gremlin-His (R&D). Briefly: ELISA, coated mouse gremlin (R&D). How it is done: as §3
Test [6] deals with T3, XM5-Fc (human (hGREM1 with residues 123-143 …)).
T3 construct: also called gremlin 1-DAN fusion protein
T3 chain: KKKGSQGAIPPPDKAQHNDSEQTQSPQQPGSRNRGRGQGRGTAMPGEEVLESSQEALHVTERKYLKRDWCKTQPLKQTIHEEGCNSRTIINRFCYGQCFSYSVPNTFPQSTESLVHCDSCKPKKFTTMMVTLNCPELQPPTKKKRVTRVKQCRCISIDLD
The test can be described thus: ELISA on coated XM5-Fc (column XM5). How it is done:
(§4) Binding affinities to hGREM1 and XM5 were also compared. Briefly, XM5-Fc or Gremlin-his […] was coated. 100 μl of block solution consisting of PBS+1% BSA+1% normal goat serum+0.5% Tween 20 (Sigma) was added to each well and incubated at room temperature for 2 hours. 4-fold serial antibody dilution from 2 μg/ml were added. Afterward the plates were washed three times with 200 ul of PBS+0.1% Tween20 followed by adding 100 μl/well 1:10000 Goat anti mouse IgG-HRP (abeam), and incubate for 1 hour at room temperature. They were then washed 3× with PBS+0.1% Tween20. Finally, 100 μl/well of TMB (InnoReagents) was added to each well and after 2 minutes add 50 ul of stop solution to each well. The plates were read on a Multiscan FC microplate reader (Thermo Scientific) at […]. The EC50 values were show in table below.

In test [7] the target is T1, HGREM1-His (ACRO). Briefly: competition ELISA, Gremlin-his binding to coated BMP7.
In test [8] the target is T1, HGREM1-His (ACRO). The test can be described thus: ELISA on coated Gremlin-his (column Gremlin). How it is done:
as §4

Test [9] has as its target T1, HGREM1-His (ACRO). Briefly: blocking ELISA, Human Gremlin-1 binding to FGFR1. How it is done:
as §1

The target in test [10] is T1, HGREM1-His (ACRO). Briefly: blocking ELISA, Human Gremlin-1 binding to BMP2; column OD450. How it is done:
as §2

The target in test [11] is T1, HGREM1-His (ACRO). The test can be described thus: blocking ELISA, Human Gremlin-1 binding to BMP4; column OD450. The protocol: as §2
In test [12] the target is T1, HGREM1-His (ACRO). Briefly: blocking ELISA, Human Gremlin-1 binding to BMP7; column OD450. The protocol: as §2
The target of test [13] is T1, HGREM1-His (ACRO). Briefly: blocking ELISA, Human Gremlin-1 binding to BMP2; column Percentage. The protocol: as §2
Test [14] has as its target T1, HGREM1-His (ACRO). The test can be described thus: blocking ELISA, Human Gremlin-1 binding to BMP4; column Percentage. The protocol: as §2
Test [15] addresses T1, HGREM1-His (ACRO). Briefly: blocking ELISA, Human Gremlin-1 binding to BMP7; column Percentage. The protocol:
as §2

The target in test [16] is T4, hGREM1 (source and construct not stated) (human, UniProt O60565 25-184).
T4 construct: also called Gremlin; gremlin
T4 sequence: T1 sequence
Briefly: ELISA on hGREM1.

Where a chain is given by its changes, count along the chain named.

B1: 69H5-C (chimeric antibody 69H5) (antibody, human IgG1, V domains shown)
VH: EVQLQQSGAELVRPGASVKLSCTASGFNIKDDYMHWVKRRPEQGLEWIGWIDPENGDTEYASKFQGKATITADTSSNTAYLQLSSLTSEDTAVYYCTTWATVPDFDYWGQGTTLTVSS
VL: DIVMTQSPSSLAMSVGQKVTMSCKSSQSLLNRSNQKNYLAWYQQKPGQSPKLLVHFTSTRESGVPDRFIGSGSGTDFTLTISNLQAEDLADYFCQQHYSTPFTFGSGTKLEIK
notes: also called 69H5-chi
For orientation: IC50 means the concentration needed to halve the response being measured. Read a high IC50 as weaker potency. On to B1, for which the IC50 in [1] stood at 7.14 nM. The “IC50 (read off the curve)” value in [2] is roughly 6 nM.

B2: 69H5 (antibody, V domains shown)
VH: B1 VH
VL: B1 VL
notes: mouse hybridoma antibody; also called hybridoma 69H5
A word on the EC50: it is the concentration needed to bring the measured effect to its halfway point. High values mean weaker potency, low ones greater potency. Regarding B2, the EC50 in test [3] amounted to 0.106 µg/mL. For the same molecule, the binding result in [4] is listed as “no binding”.

B3: 67G11 (antibody, V domains shown)
VH: QVQLQQSGAELARPGASVKLSCKASGYTFTSYGIGWVKQRTGQGLEWIGEIYPRSGNTYNNEKFKGKATLTADKSSRTVYMELRSLISEDSAVYFCAREGYSNNYYAMDYWGQGTSVTVFS
VL: DVLMTQTPLSLPVSLGDQASISCRSSQSLVHSNGNTYLEWYLQKPGQSPKLLIYKVSNRFSGVPDRLSGSGSGTDFTLKISRVEAEDLGVYYCFQGSHVPFTFGSGTKLEIK
notes: mouse hybridoma antibody; also called hybridoma 67G11
Turning to B3, the EC50 in test [3] is 0.00784 µg/mL; in test [5] it was 0.00771 µg/mL; in test [6] it was 0.00665 µg/mL; in test [8], 0.0126 µg/mL. In [7], this molecule displayed a maximal blocking percentage of no less than 50%. For the same molecule, the concentration for half-maximal inhibition (IC50) in [9] came to 2.41 µg/mL; in test [10], 0.547 µg/mL; in [11], 0.367 µg/mL; in [12], 0.848 µg/mL; in test [13], 0.548 µg/mL; in test [14], 0.367 µg/mL. The IC50 in test [15] came out at 0.848 µg/mL.

B4: 56C11-C (chimeric antibody of 56C11) (antibody, human IgG1, V domains shown)
VH: EVQLQQSGPELVKPGASVKISCKASGYTFTDFYMNWVKQSHGKSLEWIGDINPNNGGTSYNQKFKGKATLTVDKSSSTAYMELRSLTSEDSAVYYCARDPIYYDYDEVAYWGQGTLVTVSA
VL: B3 VL with L3V, E39H, L67F, Y92F, F94S, G96S, S97T, F101L, S105A, I111L
notes: also called 56C11-chi
In [16], B4 gave an EC50 of 0.00489 µg/mL.

B5: 42B9 (antibody, V domains shown)
VH: B3 VH
VL: B3 VL with R24I, Q47L, K79R
notes: mouse hybridoma antibody; also called hybridoma 42B9
B5: the concentration for a half-maximal effect (EC50) amounted to 0.00806 µg/mL in test [3], 0.00851 µg/mL in test [5], 0.00712 µg/mL in [6] and 0.0134 µg/mL in test [8]. The molecule further returned a maximal blocking percentage in test [7] of no less than 50%. Also, the IC50 in [9] is 2.79 µg/mL; in test [10] it was 0.752 µg/mL; in test [11] it was 0.397 µg/mL; in test [12] it was 0.916 µg/mL; in test [13], 0.752 µg/mL; in test [14], 0.396 µg/mL. For the same molecule, the IC50 in test [15] was 0.928 µg/mL.
